Test results taken from article PMC10397247.
One block for each binder: values may come before it.

Assays:
[1] = biological target: T1, P4; experiment: two-hybrid library CCmax;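 note: natural log of median RNA to DNA barcode read ratio; higher means stronger binding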
T1 chain: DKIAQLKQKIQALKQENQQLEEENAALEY

[2] = biological target: T2, P4SN; experiment: two-hybrid library CCmax; settings: mean of both orientations;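 note: natural log of median RNA to DNA barcode read ratio; higher means stronger binding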
T2 chain: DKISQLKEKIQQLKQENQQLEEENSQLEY

[3] = biological target: T3, 4H2859-bA; experiment: two-hybrid library CCNG1;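 note: natural log of median RNA to DNA barcode read ratio; higher means stronger binding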
T3 chain: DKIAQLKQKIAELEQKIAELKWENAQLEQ

[4] = biological target: T4, 4H2444-bA; experiment: two-hybrid library CCNG1;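 note: natural log of median RNA to DNA barcode read ratio; higher means stronger binding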
T4 chain: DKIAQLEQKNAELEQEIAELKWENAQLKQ

[5] = biological target: T5, 4H235-bA; experiment: two-hybrid library CCNG1;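 note: natural log of median RNA to DNA barcode read ratio; higher means stronger binding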
T5 chain: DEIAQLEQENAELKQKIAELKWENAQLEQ

[6] = biological target: T6, 4H2233-bA; experiment: two-hybrid library CCNG1;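 note: natural log of median RNA to DNA barcode read ratio; higher means stronger binding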
T6 chain: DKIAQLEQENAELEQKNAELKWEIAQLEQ

[7] = biological target: T7, 4H949-bA; experiment: two-hybrid library CCNG1
T7 chain: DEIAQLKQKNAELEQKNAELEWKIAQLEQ

[8] = biological target: T8, 4H2518-bA; experiment: two-hybrid library CCNG1
T8 chain: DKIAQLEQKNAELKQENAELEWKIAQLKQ

[9] = biological target: T9, 4H3381-bA; experiment: two-hybrid library CCNG1
T9 chain: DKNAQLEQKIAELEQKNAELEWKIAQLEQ

[10] = biological target: T10, 4H730-bA; experiment: two-hybrid library CCNG1
T10 chain: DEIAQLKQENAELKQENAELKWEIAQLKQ

[11] = biological target: T11, 4H796-bA; experiment: two-hybrid library CCNG1
T11 chain: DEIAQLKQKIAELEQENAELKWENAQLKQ

[12] = biological target: T12, 4H3041-bA; experiment: two-hybrid library CCNG1
T12 chain: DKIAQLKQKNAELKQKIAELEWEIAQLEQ

[13] = biological target: T13, 4H2162-bA; experiment: two-hybrid library CCNG1
T13 chain: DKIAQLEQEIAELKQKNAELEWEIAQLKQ

[14] = biological target: T14, 4H2760-bA; experiment: two-hybrid library CCNG1
T14 chain: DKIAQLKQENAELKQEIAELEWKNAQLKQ

[15] = biological target: T15, 4H349-bA; experiment: two-hybrid library CCNG1
T15 chain: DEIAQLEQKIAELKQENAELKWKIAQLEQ

[16] = biological target: T16, 4H2253-bA; experiment: two-hybrid library CCNG1
T16 chain: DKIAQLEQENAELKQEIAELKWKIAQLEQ

[17] = biological target: T17, 4H932-bA; experiment: two-hybrid library CCNG1
T17 chain: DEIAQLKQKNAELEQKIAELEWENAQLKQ

[18] = biological target: T18, 4H3297-bA; experiment: two-hybrid library CCNG1
T18 chain: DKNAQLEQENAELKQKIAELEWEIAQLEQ

[19] = biological target: T19, 4H264-bA; experiment: two-hybrid library CCNG1
T19 chain: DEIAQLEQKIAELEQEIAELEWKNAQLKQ

[20] = biological target: T20, 4H2931-bA; experiment: two-hybrid library CCNG1
T20 chain: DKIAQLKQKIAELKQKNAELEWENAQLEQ

[21] = biological target: T21, 4H2585-bA; experiment: two-hybrid library CCNG1
T21 chain: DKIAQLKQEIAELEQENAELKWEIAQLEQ

[22] = biological target: T22, 4H56-bA; experiment: two-hybrid library CCNG1
T22 chain: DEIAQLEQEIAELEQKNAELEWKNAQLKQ

[23] = biological target: T23, 4H3364-bA; experiment: two-hybrid library CCNG1
T23 chain: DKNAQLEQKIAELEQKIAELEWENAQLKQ

[24] = biological target: T24, 4H855-bH; experiment: two-hybrid library CCNG1
T24 chain: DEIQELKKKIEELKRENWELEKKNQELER

- interaction score [1]: -1.51
- interaction score [2]: -1.65
B1: P3_WRA (peptide)
chain: DEIQQLEEEIAQLEWKNAARKEKNAQLKA

- interaction score [3]: 0.326
- interaction score [4]: 0.102
- interaction score [5]: 0.118
- interaction score [6]: 0.431
- interaction score [7]: -0.448
- interaction score [8]: 0.642
- interaction score [9]: -1.2
- interaction score [10]: 0.193
- interaction score [11]: -1.31
- interaction score [12]: 1.37
- interaction score [13]: 0.667
- interaction score [14]: -0.382
- interaction score [15]: 0.82
- interaction score [16]: -0.158
- interaction score [17]: -1.48
- interaction score [18]: -0.125
- interaction score [19]: -1.08
- interaction score [20]: 1.13
- interaction score [21]: -0.85
- interaction score [22]: 0.371
- interaction score [23]: -0.464
- interaction score [24]: -2.4
B2: 4H2162-bA (peptide)
chain: DKIAQLEQEIAELKQKNAELEWEIAQLKQ
